Measurements from US20250076311A1 (Chugai, published 2025).

T1: cynomolgus monkey FcγRIIb extracellular domain with C-terminal His-tag (cynomolgus monkey)
T1 construct: also called cyno FcgRIIb; cynoFcγRIIb; not shown: His-tag added to the C-terminus
T1 chain: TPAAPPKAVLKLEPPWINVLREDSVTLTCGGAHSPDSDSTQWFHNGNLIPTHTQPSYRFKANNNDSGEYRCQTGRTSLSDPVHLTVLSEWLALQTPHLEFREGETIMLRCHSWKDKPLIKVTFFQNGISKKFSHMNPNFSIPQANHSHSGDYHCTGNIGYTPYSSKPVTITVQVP

T2: cynomolgus monkey FcγRIIa2 extracellular domain with C-terminal His-tag (cynomolgus monkey)
T2 construct: also called cyno FcgRIIa2; cynoFcγRIIa2; not shown: His-tag added to the C-terminus
T2 chain: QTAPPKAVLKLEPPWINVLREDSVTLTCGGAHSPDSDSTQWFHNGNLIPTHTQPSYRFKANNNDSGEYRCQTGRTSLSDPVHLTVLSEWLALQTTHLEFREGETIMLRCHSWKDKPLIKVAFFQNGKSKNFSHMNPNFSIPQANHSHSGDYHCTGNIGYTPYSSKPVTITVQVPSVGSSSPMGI

T3: human FcγRIIb extracellular domain with C-terminal His-tag (human, UniProt P31994 43-217)
T3 construct: also called human FcgRIIb; not shown: His-tag added to the C-terminus
T3 sequence: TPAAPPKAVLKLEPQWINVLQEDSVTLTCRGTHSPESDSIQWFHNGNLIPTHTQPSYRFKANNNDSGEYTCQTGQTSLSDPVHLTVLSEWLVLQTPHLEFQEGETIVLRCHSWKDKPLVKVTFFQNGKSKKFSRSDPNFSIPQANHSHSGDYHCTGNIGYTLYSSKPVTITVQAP

T4: cynomolgus monkey FcγRIIa3 extracellular domain with C-terminal His-tag (cynomolgus monkey)
T4 construct: also called cyno FcgRIIa3; cynoFcγRIIa3; not shown: His-tag added to the C-terminus
T4 chain: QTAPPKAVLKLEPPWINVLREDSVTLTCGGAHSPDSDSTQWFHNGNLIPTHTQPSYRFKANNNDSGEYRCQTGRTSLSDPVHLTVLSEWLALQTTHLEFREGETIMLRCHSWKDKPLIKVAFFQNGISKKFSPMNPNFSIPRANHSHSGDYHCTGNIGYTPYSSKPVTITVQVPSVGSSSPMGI

T5: human FcγRIIaR extracellular domain with C-terminal His-tag (human, UniProt P12318 34-217)
T5 construct: also called human FcgRIIaR; FcγRIIa type R; not shown: His-tag added to the C-terminus
T5 chain: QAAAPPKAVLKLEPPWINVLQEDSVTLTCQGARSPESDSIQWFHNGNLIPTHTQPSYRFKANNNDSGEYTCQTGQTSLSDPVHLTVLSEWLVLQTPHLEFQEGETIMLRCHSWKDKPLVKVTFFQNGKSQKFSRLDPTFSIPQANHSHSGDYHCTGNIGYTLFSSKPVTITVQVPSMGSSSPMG

T6: cynomolgus monkey FcγRIIa1 extracellular domain with C-terminal His-tag (cynomolgus monkey)
T6 construct: also called cyno FcgRIIa1; cynoFcγRIIa1; not shown: His-tag added to the C-terminus
T6 chain: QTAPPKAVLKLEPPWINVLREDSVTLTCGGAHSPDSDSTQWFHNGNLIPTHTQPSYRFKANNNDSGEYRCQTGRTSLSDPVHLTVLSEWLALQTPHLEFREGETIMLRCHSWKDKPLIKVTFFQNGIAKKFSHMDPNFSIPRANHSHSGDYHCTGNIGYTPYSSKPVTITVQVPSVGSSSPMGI


Key:
[1] = target: T7, cynomolgus monkey FcγRIIIaS extracellular domain, His-tagged (cynomolgus monkey, UniProt A3RFZ7 21-206 (rhesus entry)); assay: SPR (BIACORE), antibody captured on chip, FcγR as analyte, 25 C; KD of M103205H795-SG1 divided by KD of the variant
T7 construct: also called cyno FcγRIIIaS; cynoFcγRIIIaS; not shown: His-tag added to the C-terminus
Protocol: The kinetic analysis of interactions between these antibodies and FcγR was carried out using BIACORE® T200 or BIACORE® 4000 (GE Healthcare). HBS-EP+ (GE Healthcare) was used as the running buffer, and the measurement temperature was set to 25° C. […] After the measurement, the antibody captured on the chip was washed off by allowing reaction with 10 mM glycine-HCl, pH1.5 and 25 mM NaOH so that the chip was regenerated and used repeatedly. The sensorgrams obtained as measurement results were analyzed by the 1:1 Langmuir binding model using the BIACORE® Evaluation Software to calculate the binding rate constant ka (L/mol/s) and dissociation rate constant kd (1/s), and the dissociation constant KD (mol/L) was calculated from these values. […] Regarding such interactions, KD values were calculated using the following 1:1 binding model described in BIACORE® T100 Software Handbook BR1006-48 Edition AE.

[2] = target: T1, cynomolgus monkey FcγRIIb extracellular …; assay: SPR (BIACORE), antibody captured, FcgR analyte
[3] = target: T2, cynomolgus monkey FcγRIIa2 …; assay: SPR (BIACORE), antibody captured, FcgR analyte
[4] = target: T8, human FcγRIIIaV extracellular domain with C-terminal His-tag (human, UniProt P08637 17-208); assay: SPR (BIACORE), antibody captured, FcgR analyte
T8 construct: also called human FcgRIIIaV; not shown: His-tag added to the C-terminus
T8 sequence (P08637 17-208 F176V): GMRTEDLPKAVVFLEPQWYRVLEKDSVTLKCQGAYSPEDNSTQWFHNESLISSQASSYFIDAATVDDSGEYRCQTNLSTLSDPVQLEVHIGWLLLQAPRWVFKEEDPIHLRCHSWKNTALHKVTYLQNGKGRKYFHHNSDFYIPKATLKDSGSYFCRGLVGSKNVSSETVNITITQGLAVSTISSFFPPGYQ

[5] = target: T3, human FcγRIIb extracellular domain with …; assay: SPR (BIACORE), antibody captured, FcgR analyte
[6] = target: T9, cynomolgus monkey FcγRIIIaS extracellular domain with C-terminal His-tag (cynomolgus monkey, UniProt A3RFZ7 21-206 (rhesus entry)); assay: SPR (BIACORE), antibody captured, FcgR analyte
T9 construct: also called cyno FcgRIIIaS; cynoFcγRIIIaS; not shown: His-tag added to the C-terminus
T9 sequence (A3RFZ7 21-206): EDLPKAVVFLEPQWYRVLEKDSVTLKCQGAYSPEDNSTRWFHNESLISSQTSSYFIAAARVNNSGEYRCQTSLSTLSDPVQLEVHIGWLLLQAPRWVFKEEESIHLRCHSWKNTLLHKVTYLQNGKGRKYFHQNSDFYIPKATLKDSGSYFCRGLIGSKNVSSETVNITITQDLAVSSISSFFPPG

[7] = target: T4, cynomolgus monkey FcγRIIa3 …; assay: SPR (BIACORE), antibody captured, FcgR analyte
[8] = target: T5, human FcγRIIaR extracellular domain …; assay: SPR (BIACORE), antibody captured, FcgR analyte
[9] = target: T6, cynomolgus monkey FcγRIIa1 …; assay: SPR (BIACORE), antibody captured, FcgR analyte

KD fold (SG1 = 1) [1]	Kd [2]	Kd [3]	Kd [4]	Kd [5]	Kd [6]	Kd [7]	Kd [8]	Kd [9]	Binder
2.25 fold									M103205H795-MY066/M103202L889-SK1 (antibody, human IgG1, kappa, name in EU numbering) heavy: not shown light: DIVMTQSPATLSLSPGERATLSCTSSQSVYHANWLSWFQQKPGQPPKLLIYWASTLAYGVPSRFSGSGSGTDFTLTISSLQPEDAATYYCAGGYGGGRYAFGQGTKVEIKRTVAAPSVFIFPPSDEQLKSGTASVVCLLNNFYPREAKVQWKVDNALQSGNSQESVTEQDSKDSTYSLSSTLTLSKADYEKHKVYACEVTHQGLSSPVTKSFNRGEC
	980 nM	2400 nM	9.1 µM	1200 nM	3600 nM	10 µM	2500 nM	1900 nM	M103205H795-MY145/M103202L889-SK1 (antibody, human IgG1, kappa, name in EU numbering, Fc variant of MS1032LO06-SG1; positions in EU numbering) heavy: QVTLKESGPVLVKPTETLTLTCTVSGIDLSHDDISWVRQAPGKGLEWVGIISYAGSTYYASWAKGRLTISKDTSKNQVVLTMTNMDPVDTATYYCARGVPAYSHGGDLWGQGTLVTVSSASTKGPSVFPLAPSSKSTSGGTAALGCLVKDYFPEPVTVSWNSGALTSGVHTFPAVLQSSGLYSLSSVVTVPSSSLGTQTYICNVNHKPSNTKVDKKVEPKSCDKTHTCPPCPAPELLNGPSVFLFPPKPKDTLMISRTPEVTCVVVDVSEEDPEVKFNWYVDGVEVHNAKTKPREEQYNSTYRVVSVLTVLHQDWLNGKEYKCKVSNKALPAEIEKTISKAKGQPREPQVYTLPPSREEMTKNQVSLTCLVKGFYPSDIAVEWESNGQPENNYKTTPMVLDSDGSFFLYSKLTVDKSRWQQGNVFSCSVMHEALHNHYTQKSLSLSP light: DIVMTQSPATLSLSPGERATLSCTSSQSVYHANWLSWFQQKPGQPPKLLIYWASTLAYGVPSRFSGSGSGTDFTLTISSLQPEDAATYYCAGGYGGGRYAFGQGTKVEIKRTVAAPSVFIFPPSDEQLKSGTASVVCLLNNFYPREAKVQWKVDNALQSGNSQESVTEQDSKDSTYSLSSTLTLSKADYEKHKVYACEVTHQGLSSPVTKSFNRGEC
		580 nM	48 µM	820 nM	3000 nM		1300 nM		M103205H795-MY211/M103202L889-SK1 (antibody, human IgG1, kappa, name in EU numbering, Fc variant of MS1032LO06-SG1; positions in EU numbering) heavy: QVTLKESGPVLVKPTETLTLTCTVSGIDLSHDDISWVRQAPGKGLEWVGIISYAGSTYYASWAKGRLTISKDTSKNQVVLTMTNMDPVDTATYYCARGVPAYSHGGDLWGQGTLVTVSSASTKGPSVFPLAPSSKSTSGGTAALGCLVKDYFPEPVTVSWNSGALTSGVHTFPAVLQSSGLYSLSSVVTVPSSSLGTQTYICNVNHKPSNTKVDKKVEPKSCDKTHTCPPCPAPELLNGPVVFLFPPKPKDTLMISRTPEVTCVVVDVSDEDPEVKFNWYVDGVEVHNAKTKPREEQYNSTYRVVSVLTVLHQDWLNGKEYKCKVSNTALPKPIEKTISKAKGQPREPQVYTLPPSREEMTKNQVSLTCLVKGFYPSDIAVEWESNGQPENNYKTTPPVLDSDGSFFLYSKLTVDKSRWQQGNVFSCSVMHEALHNHYTQKSLSLSP light: DIVMTQSPATLSLSPGERATLSCTSSQSVYHANWLSWFQQKPGQPPKLLIYWASTLAYGVPSRFSGSGSGTDFTLTISSLQPEDAATYYCAGGYGGGRYAFGQGTKVEIKRTVAAPSVFIFPPSDEQLKSGTASVVCLLNNFYPREAKVQWKVDNALQSGNSQESVTEQDSKDSTYSLSSTLTLSKADYEKHKVYACEVTHQGLSSPVTKSFNRGEC
		330 nM	6.9 µM		2700 nM				M103205H795-MY198/M103202L889-SK1 (antibody, human IgG1, kappa, name in EU numbering, Fc variant of MS1032LO06-SG1; positions in EU numbering) heavy: QVTLKESGPVLVKPTETLTLTCTVSGIDLSHDDISWVRQAPGKGLEWVGIISYAGSTYYASWAKGRLTISKDTSKNQVVLTMTNMDPVDTATYYCARGVPAYSHGGDLWGQGTLVTVSSASTKGPSVFPLAPSSKSTSGGTAALGCLVKDYFPEPVTVSWNSGALTSGVHTFPAVLQSSGLYSLSSVVTVPSSSLGTQTYICNVNHKPSNTKVDKKVEPKSCDKTHTCPPCPAPELLNGPVVFLFPPKPKDTLMISRTPEVTCVVVDVSDEDPEVKFNWYVDGVEVHNAKTKPREEQYNSTYRVVSVLTVLHQDWLNGKEYKCKVSNKALPKPIEKTISKAKGQPREPQVYTLPPSREEMTKNQVSLTCLVKGFYPSDIAVEWESNGQPENNYKTTPMVLDSDGSFFLYSKLTVDKSRWQQGNVFSCSVMHEALHNHYTQKSLSLSP light: DIVMTQSPATLSLSPGERATLSCTSSQSVYHANWLSWFQQKPGQPPKLLIYWASTLAYGVPSRFSGSGSGTDFTLTISSLQPEDAATYYCAGGYGGGRYAFGQGTKVEIKRTVAAPSVFIFPPSDEQLKSGTASVVCLLNNFYPREAKVQWKVDNALQSGNSQESVTEQDSKDSTYSLSSTLTLSKADYEKHKVYACEVTHQGLSSPVTKSFNRGEC
3.6 fold									M103205H795-MY067/M103202L889-SK1 (antibody, human IgG1, kappa, name in EU numbering) heavy: not shown light: DIVMTQSPATLSLSPGERATLSCTSSQSVYHANWLSWFQQKPGQPPKLLIYWASTLAYGVPSRFSGSGSGTDFTLTISSLQPEDAATYYCAGGYGGGRYAFGQGTKVEIKRTVAAPSVFIFPPSDEQLKSGTASVVCLLNNFYPREAKVQWKVDNALQSGNSQESVTEQDSKDSTYSLSSTLTLSKADYEKHKVYACEVTHQGLSSPVTKSFNRGEC
